Test results from patent US20250382355A1 (Merck Sharp & Dohme, published 2025).
Changes are numbered by the printed parent chain.

Legend:
[1] = biological target: T1, SARS-CoV-2 prefusion-stabilized spike protein (SARS-CoV-2-PreS) (SARS-CoV-2, UniProt P0DTC2 14-1208); assay: Biacore, apparent affinity
[2] = biological target: T1, SARS-CoV-2 prefusion-stabilized spike …; assay: ELISA
[3] = biological target: T2, Biotinylated CoV2 Spike ECD PreS-AVI protein (SARS-CoV-2, UniProt P0DTC2 14-1208); assay: Octet binning; competitor 7A9
[4] = biological target: T2, Biotinylated CoV2 Spike ECD PreS-AVI …; assay: Octet binning; competitor 8E9
[5] = biological target: T2, Biotinylated CoV2 Spike ECD PreS-AVI …; assay: Octet binning; competitor 9B2
[6] = biological target: T2, Biotinylated CoV2 Spike ECD PreS-AVI …; assay: Octet binning; competitor 11F8
[7] = biological target: T2, Biotinylated CoV2 Spike ECD PreS-AVI …; assay: Octet binning; competitor 13C8
[8] = biological target: T2, Biotinylated CoV2 Spike ECD PreS-AVI …; assay: Octet binning; competitor 15H1
[9] = biological target: T2, Biotinylated CoV2 Spike ECD PreS-AVI …; assay: Octet binning; competitor 15H7
[10] = biological target: T2, Biotinylated CoV2 Spike ECD PreS-AVI …; assay: Octet binning; competitor 1A11
[11] = biological target: T2, Biotinylated CoV2 Spike ECD PreS-AVI …; assay: Octet binning; competitor Std-A
[12] = biological target: T2, Biotinylated CoV2 Spike ECD PreS-AVI …; assay: Octet binning; competitor Std-B
[13] = biological target: T2, Biotinylated CoV2 Spike ECD PreS-AVI …; assay: Octet binning; competitor Std-D

B1: 1A11 VHH (VHH)
VHH: QVQLVESGGGLVQAGGSLRLSCEVSGSIYSINSMGWYRQAPGKQRELVAGIVSDGRINYADSVKGRFTISRAKNTVYLQMNSLKPEDTAVYYCAADRAFVYAGDYDYLGQGTQVTVSS
Kd [1]: < 0.2 nM

B2: 3D4 VHH (VHH)
VHH: QVQLVESGGGLVQPGGSLRLSCAASGFTLDLNSIGWFRQAPGKEREGVSCISPSGSRMHYADSVKGRFTISRDNAKNTVYLQMNSLKPEDTAVYYCATGSPSYHYCSMYGLEYDSWGQGTQVTVPS
Kd [1]: < 0.2 nM

B3: 19C10 VHH (VHH)
VHH: B2 VHH with G55A, R57S, M58T, S100T, S115D, P125S
Kd [1]: < 50 nM

B4: 1E4 VHH (VHH)
VHH: QVLLVESGGGLVQAGGLLRLACSASGRTFTENVMGWFRQAPGKEREFVAAINWNTGSTYYSDSRKGRFTISKDNAKNTMFLQINNLKPEDTAVYYCGGTSSSYYYIGEFIPDYWGQGTQVTVSS
Kd [1]: 0.25 nM

B5: 5A6 VHH (VHH)
VHH: QVQLVESGGGLAQAGGSLRLSCATSGLTFSMSAMGWFRQAPGNEREFVGVINWNGGSSRYADSVRGRFTISRDNAKNTVYLQMNSLKPEDTGVYYCAADALNIGTGEVNPRLYDYWGQGTQVMVSS
Kd [1]: 0.46 nM

B6: 5D7 VHH (VHH)
VHH: QVQLVESGGGLVQAGGSLRLSCAASGRTGSRYIMGWFRQAPGKEREFVAAINWRGDSTYYADSVKGRFTIARDNAKNTAYLQMNSLKPEDTAVYYCVADRGESYYYTRSTEYTYWGQGTQVTVSS
Kd [1]: 1.5 nM

B7: 19B8 VHH (VHH)
VHH: QVQLVESGGGLVQAGGSLRLSCAASGRTFTNYAMGWFRQAPGKEREFVAAISWSGGGTNYADSVKGRFTISRDNAKNTVYLQMNSPKPEDTAVYYCATTLGYYGSSSRLYEYWGQGTQVTVSS
Kd [1]: 87 nM

B8: 9B2 VHH (VHH)
VHH: QVQLVESGGGLVQPGGSLRLSCAASGFTLDNYAIGWFRQAPGKEREGVSCISSSDGDTQYADSVKGRFTISRDNAKNTVYLQMNSLKPEDTAVYYCAVEKVYARSWFFHLCSELDFGSWGQGTQVTVSS
Kd [1]: 0.61 nM

B9: 11F5 VHH (VHH)
VHH: QVQLVESGGGAVQAGDSLRLSCTASGRTFSTYAVGWFRQAPGKERELLAAITGSGRNPYYPDSLKGRFTISREYAKLPVYLQMNSLKPEDTAVYYCAARRGAIATMPLDYDHWGQGTQVTVSS
Kd [1]: 8 nM

B10: 15H1 VHH (VHH)
VHH: QVQLVESGGGLAQAGGSLRLSCASSGLIFSGSAMGWFRQAPGKEREFVGVISWNGRTTYADSVKGRFTISRDDAVNMVWLQMNNLKPEDTAVYYCAADHLNYGSGDVNPRTYDYWGQGTQVTVSS
Kd [1]: 0.6 nM

B11: 15H1 VHH-Fc (Fc fusion)
chain: B10 VHH
EC50 [2]: 0.14 nM | Kd [1]: < 0.2 nM | binning response [3]: 0.35 | binning response [4]: 0.08 | binning response [5]: 0.08 | binning response [6]: 0.09 | binning response [7]: 0.1 | binning response [8]: 0.11 | binning response [9]: 0.11 | binning response [10]: 0.08 | binning response [11]: 0.35 | binning response [12]: 0.3 | binning response [13]: 0.05

B12: 7A9 VHH (VHH)
VHH: QVQLVESGGGLVQAGGSLRLSCSASGGTASRSAMGWFRQAPGKEREFVAGISRRNSGSTYVADSYEDSVKGRFTISRDNAKNTIYLQMNSLKPEDTAVYYCAAEPTLGWYVPRRSVEYEYWGQGTQVTVSS
Kd [1]: 0.22 nM

B13: 11F8 VHH-Fc (Fc fusion)
chain: QVQLVESGGGLVQAGGSLRLSCAASGRTVGYYAVGWFRQAPGKERDFVAAISWSGRNTNYADSVTGRFTIFRDNAKNTVDLQMNSLKPEDTAVYYCAADYWNYGSGSEVPNNYDTWGQGTQVTVSS
EC50 [2]: 0.19 nM | Kd [1]: < 0.2 nM | binning response [3]: 0.35 | binning response [4]: 0.12 | binning response [5]: 0.13 | binning response [6]: 0.14 | binning response [7]: 0.15 | binning response [8]: 0.15 | binning response [9]: 0.14 | binning response [10]: 0.12 | binning response [11]: 0.17 | binning response [12]: 0.29 | binning response [13]: 0.08

B14: 11F8 VHH (VHH)
VHH: B13 chain
Kd [1]: 0.95 nM

B15: 6A1 VHH (VHH)
VHH: QVQLVESGGGLVQAGGSLRLSCTASGNIFSVNVMGWHRQAPGKRRELVAALTNDGRRNYADSVKGRFTISRDNAKNTIYLEMNSLKPEDTAVYYCGTGTLESGFNSWGQGLQVTVSS
Kd [1]: > 500 nM

B16: 20D11 VHH (VHH)
VHH: QVQLVESGGGLVQAGGSLRLSCAASGRTSSIYSVGWFRQAPGKERELVAGITWSGGTTYYSDSVKGRFTISRDNAKNTVNLQMNNLKPEDTAIYYCAVDRYSMTMSARDYDYWGQGTQVTVSS
Kd [1]: 2.2 nM

B17: 5G11 VHH (VHH)
VHH: B16 VHH with S29F, S33A, E46D, L47F, N80Y, R100T, M105L, D109S
Kd [1]: 93 nM

B18: 14F3 VHH (VHH)
VHH: B16 VHH with S33G, G50L, R72K, N80F, R100T, D111E
Kd [1]: 3 nM

B19: 19E10 VHH (VHH)
VHH: QVQLVESGGGLVQPGGSLRLSCVASGSTISINSMGWYRQAPGKAREMVATITNDGPIKYADPVKGRFTISRDNPKNTVYLQMNSLKPEDTAVYYCVADRAYWLAGEWEYWGQGTQVTVSS
Kd [1]: 0.73 nM

B20: 8E9 VHH (VHH)
VHH: QVQLVESGGGLVEAGGSLRLSCVASGSSSSINAMGWYRQAPGKQRELVASISHDGETKYANSVKGRFTISRGNAKNTIYLQMNSLKPEDTAVYYCVGDVAWVVVAGEYDYWGQGTQVTVSS
Kd [1]: 5.7 nM

B21: 13C8 VHH-Fc (Fc fusion)
chain: QVQLVESGGGLVQAGGSLRLSCAASGRTVNKYMTGWFRQTPGKEREFVASIDWSSTTTHYANSVKGRFTISRDKVKNTVYLQMNGLKPEDTAVYYCAAHQDSSYGYTILPIDYDSWGQGTQVTVSS
EC50 [2]: 0.09 nM | Kd [1]: < 0.2 nM | binning response [3]: 0.37 | binning response [4]: 0.09 | binning response [5]: 0.11 | binning response [6]: 0.11 | binning response [7]: 0.1 | binning response [8]: 0.11 | binning response [9]: 0.1 | binning response [10]: 0.11 | binning response [11]: 0.34 | binning response [12]: 0.31 | binning response [13]: 0.04

B22: 13C8 VHH (VHH)
VHH: B21 chain
Kd [1]: 12 nM

B23: 16H7 VHH (VHH)
VHH: QVQLVESGGGLVQAGGSLRLSCAASGRAFSKDTMGWFRQAPGKEREFVAVISASGDSTYYADFVKGRFTISRDNAKNTEYLQMNSLKPEDTAVYHCAADGARAYYSINAHRYSWAYNYWGQGTQVTVSS
Kd [1]: 230 nM

B24: 15H7 VHH (VHH)
VHH: QVQLVESGGRLVQAGGSLRLSCAAPGRTFRNLTLGWFRQAPGKEREFVASTSWPDDEMTYYTDSVKGRFTISRDNAKNTVYLQMNSLKPEDTAVYYCAAASWSGRSTLSYDYDYWGQGTQVTVST
Kd [1]: 0.33 nM

B25: 10B8 VHH (VHH)
VHH: QVQLVESGGGLVQPGGSLRLSCAASGITLDYYAIAWFRQAPGKEREGVSCFCSSDGDIRYADSVKGRFTISRDNAKNTVYLQMNSLKPEDTAVYYCATERVYSSTWFFHRYSELDFGSWGRGTQVTVSS
Kd [1]: < 0.2 nM
